Test: label from the status in PepcDB records

For “MENFLSLFDFFKSKIRYIFLIYTIFTIYMNSKNCFINYVLLIFLDVILIIYSFIFLNKKQKYPFLFIIISTIVYAFIWLFGHCDNIYYFIILDDIFEIKADFKKKLLVAIHSSAFMMVTLKNLIFKNYDLHEILSSIAYSIIIYMAILFVFIFIHKFKDERDKLKILNSNLIEYSFNEREFLLSEERNRISQELHDSIGHSLMALSMNIKYLKGIKNRSNINEELDNMDKVIKESVQTLRSTVYNLKKLDECCDLKKEVYDIIKKFNRLDIVKINFDCASDIEKSTTTIKNTLIKTIKEGITNSLKHGNPTEINVTLTLVNSYIKLIIQDNGVGCQNIKPSAGLNGIKKRIEALNGKVAFESKARKGFTIETEIPGGF”, the protein production was “failed”.
In the case of “MSDLAMANPAPERTVMQHVRPLPYEADFTGFLSNTVAPRWMEALRIQRMRTCFPHFDSGAPQHLCIITETTVRYRKPVRYSDAIVGKAWLQSARYSRWIIAFSFAFEFSGLPAFEGRQAGTFIDPQTHLPLPIPASLRLPADH”, the protein production is reported as “failed”.
With “MASKSSFMATFNIVTLMLMVASSTVTARPLMKPSMGTSSPTTSLVYRLKLDEDTGYCWDSLMQLQHCSGELILFFLNGETYIGPGCCSAIRTIGRKCWPTMIGVLGFTAQEGDMLQGYCDGNDSDNNGEDHALASSTLPLSVNFKTTVVRSSASPSNP” the protein production was “failed”.
In the case of “MNLDRRGLILLVILTLAWGINWPIMKLGVAHFPAMAFRLLCMAGGLVALGLALTFRGDSLRVPRAAWGTVLKLAIPNMVIWHLFAICAVKMLSSGRAAILGYTMPIWAVVWGLVIFRDRIALSAWIGIGCALAGTVLLLSGEIAALTGSPAGTLLMLVAAAGWGFGTQLMKRTHTDVPIGAMTFWMLAITLPFLGAGTLLFESGWRMPTAIEWGAIAYNAVVVFAYCHLVWFALARSLPPVVSSLSIMFIPVVGVFSGMWFLGETPHWQDYVAIVLMFAALSSVMLAPLLRRRM”, the protein production is reported as “failed”.
With “MKLIGITGMPGSGKSAITKLAEKYKIVVVSMGDVVRYETLKQGMPLNPENVGNTAVKLREIYGKEAIAVPCLNYVNEKYNNEDFVIIEGIRSIYEVNYIKKHAELDIIAIHSSPKTRFERLSGRNREDDSNDWNTFVERDERELNFSIGRVISLADYMVVNEGNYMDFVNDLENTFKKIINVN” the protein production was “not failed”.
For “MILLSFNILVLYQNVQISLSSGICFRLYSEVLSYILIYVAVWLTLYGIDLLNTVYGASDSRSVSKSAVSKRTLAVLPCSSCRINKRCIENGHLQSATNKTSFVC”, the protein production was “failed”.
In the case of “MTLAALCQGVLERLDPRQPGRQLVALSGAPGSGKSTLSNPLAAALSAQGLPAEVVPMDGFHLDNRLLEPRGLLPRKGAPETFDFEGFQRLCHALKHQERVIYPLFDRARDIAIAGAAEVGPECRVAIIEGNYLLFDAPGWRDLTAIWDVSIRLEVPMADLEARLVQRWLDHGLNHDAAVARAQGNDLANARAIEAARLPADLTWPQA”, the protein production is reported as “not failed”.
In the case of “MEDEIKSFAKDRKLIIEDSKNSKNNIVEVQKAIETLKDEKNAKNVVVDFTEYNPLHNGHKYCMDFGKREGLFISVIPGPLERSGRGIPYLVNRYIRSEMALLAGADLVVEGPPMGIMGSGQYMQCLIKIFSALNGDIIPRGYIEEETMEKVINSINNKNHIKIKPYNISCIETGEKFGEKLEIDNYVIASMSYTIYKLKENFPEWKPKFKFIERIEGISGTKIREGVFNNNFESIKHMLPETTLNVFKSFENNLSEIILKRNEQMVLDTVNNFDLSKYLPENISEKLNEKEYYKSIEEIKECIPRGFSKNNIERTISKLEARIEKETISKYIENYPANLKILKGINNNE”, the protein production is reported as “failed”.
In the case of “MRWKLRTAGGLTALALLGGALAGPAARAAEQGSDRLGDLVNPFIGTQNEGNTYPGAAVPFGMVQLSPDTGHNTGYDYTQNHIRGFSLVHLSGVGCRIGGDLPVLPTTGDVTETDYAKYAAGFSHDSERASPGYYRVGLDSGIVAELTATGRTGVQRYTFPATDKANVLLNAGQALHKTVSTDVEVLDDRTVRTRISGSGFCRDTGPYTVYTITRFDRPFTAYGTWHGGTVTEGSAESAAGTGRNGAYARFDATEDRTVEATTALSYVDARGAEVNLRSAEGRSFADVREAARRSWEDRLDDVRVRGGSDTLRRTFYSSLYRSFLAPNIGSDADGRYTGWDHRIHRARGFTYYQNWSLWDTYRTQCQLLALLAPRESRDMAISVLKIDEDGGWLPKWGYGTVETNIMSGDPVTPFLTNAYQQGLLKGYEEQAYRALAKNADGLPPAAYPGVGRDGNREYIADGFVPYIKGGPHAKPGDSDYAHGASATMEYALSDAMLSRMARDLGHDADAERYTARSRNYRTLFDASTGFFRARDTSGAFAGPADPADSEGFHEGTAWQYQWLVPQDLPGLVDLIGGKQAANDRLDAFFAYEQLLQDPARTAREVWVDGPYEYYNSDKYNPQNEPDLIAPYTYLSTGQPWKTTDVVHAALTLFTDTPTGMTGNDDLGTMSAWHVLSSIGLFPVQPGYDTWGLSTPVFERVDLRLDRGYYPRGTLTVTAPGTSDRDRYIQSVRVDGASHDRTYLTTRVLRGLEALHFAVGARPSAWGTAPHAAPPALK”, the protein production is reported as “failed”.
With “CTNYSLLKLAGDVESNPGPTIFSKASADLNALSTSLGELTGMLKDLKAKAETYSPFYKMAKMLFKLATLAVAAMRTKDPVVVVMLIADFGLEVFDTGFFFSYFQEELQPYMKTIPGKISDLVTDAATAAAQIPKGVYSFVSSFFETPEGAVEKQ” the protein production was “failed”.
For “MIKLIKNEIIKMLFKKKVILIMAIILIEACAFAYGQNNKYQRTVRSYVNSNSSSYNWRPLINQQIQDLQSKLKYRTVKKSEEKSINIQMEQYRYYLKNNINPITPTAGNFTSNIMAQSVTLLLPLLVIILASDIVSSEFSSRTIKVLLTRAVPRWKILLSKYIALIIMSAFVVFLTTIIPLIVSLVVFKRTGFGEPVITGYKVIAGKVDASNVVGIYQWYYILIMSALSFFISIVVGSISFMISIFVKSIGASIGIMMSALIGGNILSVFLDDIEAAKYFFVVNLNLPQYLTGKMRIVSGMNFDFSIMVLLIWSMASIVISFYVFNKKDVLV”, the protein production was “failed”.
With “LSEVEFVEFQKENFSLLIDARSPREFLHSHLIGALNFYALNDEEYQEIGTIYKKNQALAKAMGASYICQNTTKHILEITQNFRIGEKVGIYCSRGGLRSKSIAVILSELGFRVVRLKGGFKAYRTFVTHYFEN” the protein production was “failed”.
In the case of “MDTLAYLHLAETYETSTTDESSPEIPWTKNQSSALMLVASFAMGSLNWCLPTVAALKKGHRNPQVASLQQKLRASGYFPQVATGYFGSVTEAAVKRFQQANGLKADGIVGAATLAALESSIGVSESSITDPQIATSKSSLKQGDISDRVMSLQEKLQADGYYQGAITGNFDAATQAAVIQFQQANRLVVDGIVGPQTSSVLASSTRKLAASLPQKTTLEPFLTQQPQNQVKISPQSAAPPSPSQKMRLIKTISGKISPKSVVYSGNGLFFAQNMMYNHTITVYDRNYELVKVIPDEVDLSKYGHSRFKGKYRGAPVEASFSHNGKYAWISNYQMYGPGFNNPGSDKCHPSQKTDKSFLYRINTETLKIDRVIPVGSVPKFVATSTDENLILVSNWCSWDLSVVDINQNQEIKRIKLGPYPRGIVVDPASETAYVAVMGSYNIAKVNLRDFSVQWLRNIGSSPRHLNIDPAGKYLYASLNGEGKIAKISLPQGNLVKKIATGNAPRSMVLSANGQTLYVVNYGEDTVSKVRTSDMKVLQKVKVEPDPIGITYDPQTREVWVACYSGNIMIFQD”, the protein production is reported as “failed”.
In the case of “MTDMNPDIEKDQTSDEVTVETTSVFRADFLSELDAPAQAGTESAVSGVEGLPPGSALLVVKRGPNAGSRFLLDQAITSAGRHPDSDIFLDDVTVSRRHAEFRLENNEFNVVDVGSLNGTYVNREPVDSAVLANGDEVQIGKFRLVFLTGPKQGEDDGSTGGP”, the protein production is reported as “failed”.
In the case of “MGSSLSNLNDGTNGLAMGPGLGDIPESCVACVFMYLTPPEICNLAGLNRSFRGAASSDSVWEKKLPENYQDLLDLLPPERYHSLSKKDIFAVLSRPIPFDDDNKEVWIDRVTGRVCMAISARGMSITGIEDRRYWNWIPTEESRFHVVAYLQQIWWFEVDGTVRFHLPPGVYSLSFRIHLGRFTKRLGRRVCHFELTHGWDLKPVRFSLSTSDGQEASCEYYLDDVERNEALGKHKRGYWIEYRVGEFIVNGSEPSTEIQWSMKQIDCTHSKGGLCVDSVFINPIGDVKEHKRKAVLKEA”, the protein production is reported as “failed”.
In the case of “MKIKAISIDIDGTITYPNRMIHEKALEAIRRAESLGIPIMLVTGNTVQFAEAASILIGTSGPVVAEDGGAISYKKKRIFLASMDEEWILWNEIRKRFPNARTSYTMPDRRAGLVIMRETINVETVREIINELNLNLVAVDSGFAIHVKKPWINKGSGIEKASEFLGIKPKEVAHVGDGENDLDAFKVVGYKVAVAQAPKILKENADYVTKKEYGEGGAEAIYHILEKFGYL”, the protein production is reported as “not failed”.
For “HSIVAITDNRGVITHVNEKFCDISQYEYYELVGTTHKIINSGFHPRSFFKQMWKTIAQGNIWKGEICNRTKQGKLYWVDTTIVPLKDND”, the protein production was “failed”.
In the case of “MRNDRSFIELRARERAHALLDDGSYRELLDPFEGIMSPWLGAQGIVPQSDDGMVVAKGTINGQPAVVIAIEGTFQGGSMGEVSGAKMAAALELAAEDNRNGIPTQAVLCLETGGVRLQEANLGLAAIADIHAAIVDLRRYTPVVGIITGTVGCFGGMSIAAALCSYLIVTREARLGLNGPQVIEQEAGIEEYDSRNRPFIWSMTGGEIRAASGLVDALVNDGVNAVKTAMIEAIAKGVPAQHRSDNYDDYLRRLSQFDTRQQADTAQIKQLFAREDK”, the protein production is reported as “not failed”.
In the case of “MANVLVINFPGEGHINPTLAIISELIRRGETVVSYCIEDYRKKIEATGAEFREFENFLSQINIMERVNEGGSPLTMLSHMIEASERIVTQIVEETKGEQYDYLLYDNHFPVGRIIANVLQLPSISSCTTFAFNQYITFNDEQESRQVDETNPLYQSCLAGMEKWNRQYGMKCNSMYDIMNHPGDITIVYTSKEYQPRSDVFDESYKFVGPSIATRKEVGSFPMEDLKGEKLIFISMGTVFNEQPELYEKCFEAFKGVEATVILAVGKKINISQFENIPNNFKLYNYVPQLEVLQHADVFVTHGGMNSSSEALYYGVPLVVIPVTGDQPLVAKRVNEVGAGIRLNRKELTSELLRETVKEVMYDVTFKENSRKVGESLRNAGGYKRAVDEIFKMKMNSYLKLK”, the protein production is reported as “failed”.
For “MSTKGTILVTGGAGYIGSHTAVELLAHGYDVVIADNLVNSKREAIARIEKITGKTPAFHETDVSDERALARIFDAHPITAAIHFAALKAVGESVAKPIEYYRNNLDSLLSLLRVMRERAVKRIVFSSSATVYGVPERSPIDETFPLSATNPYGQTKLMAEQILRDVEAADPSWRVATLRYFNPVGAHESGLIGEDPAGIPNNLMPYVAQVAVGKLEKLRVFGSDYPTPDGTGVRDYIHVVDLARGHIAALDALERRDASLTVNLGTGRGYSVLEVVRAFEKASGRAVPYELVARRPGDVAECYANPAAAAETIGWKAERDLERMCADHWRWQENNPRGFV”, the protein production was “not failed”.
With “MADNGQADRKERSNGVIVGTCLAFVAGMIGMAYAAVPLYDMFCRVTGYNGTTQRVEQASDLILDEKIKVTFDANVAAGLPWEFVPVQRDIDVRIGETVQIMYRAKNLASTPTTGQATFNVTPMAAGAYFNKVQCFCFTETTLEPGEEMEMPVVFFVDPEIVKPVETQGIKTLTLSYTFYPREPSKPVAQVKAKAENKL” the protein production was “not failed”.
